Experimental findings from PMC5725882 (Cell Discovery, 2017) are described below.

Conditions in all cases: both partners purified
For test [1], the target named is T1, full-length wild-type p97 (^FLp97^wt) (UniProt P55072 1-806).
T1 construct: p97 (valosin-containing protein, VCP), full-length, residues 1-806; also called VCP; valosin-containing protein; source: purified; expression and purification as described previously [13, 42, 44]
In words: pull-down; GST-VIMP variants on glutathione resin, p97 proteins in solution; 20 mM Tris pH 8.0, 150 mM NaCl, 3 mM MgCl2, 10% glycerol, 0.1% Triton X-100, 4 C, 2 mM ATPγS or AMP-PNP (Figures 3b and 4e: AMP-PNP); SDS-PAGE.

In test [2] the target is T2, full-length p97 L198W (^FLp97^mt) (UniProt P55072 1-806, L198W).
T2 construct: p97 (VCP), full-length, residues 1-806, MSP1-associated mutation L198W; also called FLp97 L198W; pathogenic p97 variant L198W; source: purified; expression and purification as described previously [13, 42, 44]
The description is as above.

The target in test [3] is T3, full-length p97 A232E (^FLp97^mt) (UniProt P55072 1-806, A232E).
T3 construct: p97 (VCP), full-length, residues 1-806, MSP1-associated mutation A232E; also called FLp97 A232E; pathogenic p97 variant A232E; source: purified; expression and purification as described previously [13, 42, 44]
The description is as above.

Test [4] deals with T4, N-D1 fragment of p97 L198W, long form (^ND1p97^mt, residues 1-480) (UniProt P55072 1-480, L198W).
T4 construct: p97 (VCP), N-D1 fragment, residues 1-480, pathogenic mutation L198W; also called ND1p97 L198W (1-480); source: purified; expression and purification as described previously [13, 42, 44]
Described as above.

Test [5] deals with T5, N-D1 fragment of p97 R155H, long form (^ND1p97^mt, residues 1-480) (UniProt P55072 1-480, R155H).
T5 construct: p97 (VCP), N-D1 fragment, residues 1-480, pathogenic mutation R155H; also called ND1p97 R155H; source: purified; expression and purification as described previously [13, 42, 44]
The test is described as above.

The target in test [6] is T6, N-D1 fragment of p97 A232E, long form (^ND1p97^mt, residues 1-480) (UniProt P55072 1-480, A232E).
T6 construct: p97 (VCP), N-D1 fragment, residues 1-480, pathogenic mutation A232E; also called ND1p97 A232E (1-480); source: purified; expression and purification as described previously [13, 42, 44]
The test is described as above.

Test [7] has as its target T7, full-length p97 R155H (^FLp97^mt) (UniProt P55072 1-806, R155H).
T7 construct: p97 (VCP), full-length, residues 1-806, MSP1-associated mutation R155H; also called FLp97 R155H; pathogenic p97 variant R155H; source: purified; expression and purification as described previously [13, 42, 44]
Described as above.

Test [8] deals with T8, N-D1 fragment of wild-type p97, long form (^ND1p97^wt, residues 1-480) (UniProt P55072 1-480).
T8 construct: p97 (VCP), N-D1 fragment, residues 1-480 (the form used in pull-down and ITC); also called N-D1 long; source: purified; expression and purification as described previously [13, 42, 44]
The description is as above.

In test [9] the target is T9, FLp97wt (full-length wild-type p97, residues 1-806) (UniProt P55072 1-806).
T9 construct: p97 (valosin-containing protein, VCP), full length, residues 1-806, wild type; also called VCP; valosin-containing protein
In words: ITC; VIMPx titrated into p97; iTC200, 25 C; 50 mM Tris pH 8.0, 150 mM NaCl, 2 mM MgCl2, 5% glycerol; 2 mM AMP-PNP in both samples; one-site model. (ITC needs no label: the signal is the heat of the interaction.)

Test [10] addresses T10, ND1p97wt (N-D1 fragment of wild-type p97, residues 1-480) (UniProt P55072 1-480).
T10 construct: p97 (valosin-containing protein, VCP), N-D1 long fragment, residues 1-480, wild type; also called N-D1 long; ND1p97 (residue 1-480)
The description is as above.

The target of test [11] is T10, ND1p97wt (N-D1 fragment of wild-type …). The test can be described thus: ITC; VIMPx titrated into p97; iTC200, 25 C; 50 mM Tris pH 8.0, 150 mM NaCl, 2 mM MgCl2, 5% glycerol; 2 mM ADP in both samples; one-site model.

As a reminder, the Kd is the constant that tells how readily two partners part at equilibrium. As usually defined, the stoichiometry N is a count of units in the complex or per binding partner.

T10 sequence (P55072 1-480): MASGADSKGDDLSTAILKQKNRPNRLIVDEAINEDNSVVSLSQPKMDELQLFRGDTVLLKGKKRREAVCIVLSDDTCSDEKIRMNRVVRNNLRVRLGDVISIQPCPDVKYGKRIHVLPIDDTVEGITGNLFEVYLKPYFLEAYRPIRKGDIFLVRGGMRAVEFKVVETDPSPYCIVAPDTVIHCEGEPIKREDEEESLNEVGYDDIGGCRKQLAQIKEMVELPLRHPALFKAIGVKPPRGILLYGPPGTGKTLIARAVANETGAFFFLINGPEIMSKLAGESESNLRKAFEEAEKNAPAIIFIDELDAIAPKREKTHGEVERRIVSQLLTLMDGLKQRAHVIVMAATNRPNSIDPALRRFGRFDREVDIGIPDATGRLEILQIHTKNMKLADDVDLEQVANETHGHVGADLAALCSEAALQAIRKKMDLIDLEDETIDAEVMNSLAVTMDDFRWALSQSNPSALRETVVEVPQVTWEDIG
T9 sequence (P55072 whole entry, the tested form may be a part): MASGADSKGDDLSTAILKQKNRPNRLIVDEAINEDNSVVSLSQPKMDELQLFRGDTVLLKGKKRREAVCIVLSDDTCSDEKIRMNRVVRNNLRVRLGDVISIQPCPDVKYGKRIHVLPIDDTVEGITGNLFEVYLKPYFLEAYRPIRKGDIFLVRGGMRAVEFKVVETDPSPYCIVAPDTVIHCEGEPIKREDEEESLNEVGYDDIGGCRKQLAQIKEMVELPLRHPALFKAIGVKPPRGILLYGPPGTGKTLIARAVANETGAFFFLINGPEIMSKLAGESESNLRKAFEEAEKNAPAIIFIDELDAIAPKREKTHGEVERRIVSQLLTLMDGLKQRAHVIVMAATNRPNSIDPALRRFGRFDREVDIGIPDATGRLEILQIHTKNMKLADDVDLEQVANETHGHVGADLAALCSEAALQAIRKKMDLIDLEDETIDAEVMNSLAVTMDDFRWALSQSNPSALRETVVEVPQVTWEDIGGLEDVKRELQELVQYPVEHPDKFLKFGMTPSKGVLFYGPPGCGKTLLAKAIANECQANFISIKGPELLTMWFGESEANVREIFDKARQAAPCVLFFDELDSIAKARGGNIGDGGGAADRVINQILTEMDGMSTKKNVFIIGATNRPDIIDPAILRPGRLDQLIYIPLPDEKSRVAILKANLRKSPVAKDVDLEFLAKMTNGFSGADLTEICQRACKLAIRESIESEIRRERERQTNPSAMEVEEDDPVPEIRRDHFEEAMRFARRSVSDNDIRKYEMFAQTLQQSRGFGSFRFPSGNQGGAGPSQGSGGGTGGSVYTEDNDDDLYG
T1 sequence (P55072 whole entry, the tested form may be a part): as above
T3 sequence (P55072 whole entry A232E, the tested form may be a part): as the sequence (P55072 whole entry, the tested form may be a part) above, with A232E counted along it
T6 sequence (P55072 1-480 A232E): as the sequence (P55072 1-480) above, with A232E counted along it
T7 sequence (P55072 whole entry R155H, the tested form may be a part): as the sequence (P55072 whole entry, the tested form may be a part) above, with R155H counted along it
T8 sequence (P55072 1-480): as the sequence (P55072 1-480) above
T2 sequence (P55072 whole entry L198W, the tested form may be a part): as the sequence (P55072 whole entry, the tested form may be a part) above, with L198W counted along it
T5 sequence (P55072 1-480 R155H): as the sequence (P55072 1-480) above, with R155H counted along it
T4 sequence (P55072 1-480 L198W): as the sequence (P55072 1-480) above, with L198W counted along it

B1: GST-VIMP minimal fragment (A69-E108) (domain or fragment, UniProt Q9BQE4 69-108, looked up)
chain: AVEPDVVVKRQEALAAARLKMQEELNAQVEKHKEKLKQLE
notes: VIMP (selenoprotein S), 40 residues A69-E108; source: held on glutathione resin
In the case of B1, the binding result in test [1] is listed as “binds”.

B2: GST-tagged cytosolic segment of VIMP (GST-VIMPc, residues 49-187) (domain or fragment, UniProt Q9BQE4 49-187, looked up)
chain: QKLSARLRALRQRQLDRAAAAVEPDVVVKRQEALAAARLKMQEELNAQVEKHKEKLKQLEEEKRRQKIEMWDSMQEGKSYKGNAKKPQEEDSPGPSTSSVLKRKSDRKPLRGGGYNPLSGEGGGACSWRPGRRGPSSGG
notes: source: held on glutathione resin
As for B2, the binding result in test [2], in test [3], in test [1], in test [4], in test [5] and in test [6] was “binds” in each case. In addition, the binding result in [7] and in [8] was “binds” throughout.

B3: VIMPx (VCP-interacting membrane protein, residues 49-122) (domain or fragment, UniProt Q9BQE4 49-122, looked up)
chain: QKLSARLRALRQRQLDRAAAAVEPDVVVKRQEALAAARLKMQEELNAQVEKHKEKLKQLEEEKRRQKIEMWDSM
notes: VIMP (selenoprotein S), fragment of the cytosolic segment, residues 49-122 (stop codon after M122); also called His-VIMPx; selenoprotein S; source: E. coli BL21(DE3), purified (Ni-NTA, Superdex 75)
Consider B3, for which the Kd in test [9] amounted to 7 ± 0.13 µM; in test [10], 5.52 ± 0.26 µM; in test [11], 6.21 ± 0.85 µM. Moreover, the figures for the “stoichiometry N” value in [9], in test [10] and in test [11] were 0.66 ± 0.08, 0.98 ± 0.05 and 1.13 ± 0.06, respectively.
